Experimental data from doi:10.1101/2025.10.28.685041.

Molecular target: Rhs2 C-terminal toxin domain (Rhs2CT), His6 tag removed, as in the Rhs2CT-RhsI2-EF-Tu complex (Serratia marcescens Db10)
Assay: SEC

| Substance | stoichiometry N |
| --- | --- |
| E. coli elongation factor thermo-unstable (EF-Tu) (from UniProt P0CE47 1-394) (natural protein) | 1 |
| RhsI2 immunity protein, untagged (natural protein) | 1 |
